# Legend:
# [1] = test system: anti-m6A antibody Ab02; test: ELONA
# [2] = test system: anti-m6A antibody Ab05; test: ELONA
# [3] = test system: anti-m6A antibody Ab01; test: ELONA
# [4] = test system: Ab05 randomly labeled with DNA adapter (HyNic); test: ELONA; conditions: m6A at position 9; random HyNic labeling
# [5] = test system: anti-inosine antibody Ab10; test: ELONA
# [6] = test system: anti-m5C antibody Ab16; test: ELONA
# [7] = test system: anti-pseudouridine antibody Ab19; test: ELONA; conditions: unmodified control
# [8] = test system: anti-pseudouridine antibody Ab11; test: ELONA; conditions: unmodified control
# [9] = target: APOBEC3A (E109A/E109Q as variously stated), no fusion E109A (Homo sapiens) (UniProt P31941); test: cleavage_in_vitro; conditions: USER assay, 10 mM MgCl2, pH 7, 37C
# Sequence of APOBEC3A (E109A/E109Q as variously stated), no fusion E109A (Homo sapiens) (P31941 whole entry E109A, the tested form may be a part): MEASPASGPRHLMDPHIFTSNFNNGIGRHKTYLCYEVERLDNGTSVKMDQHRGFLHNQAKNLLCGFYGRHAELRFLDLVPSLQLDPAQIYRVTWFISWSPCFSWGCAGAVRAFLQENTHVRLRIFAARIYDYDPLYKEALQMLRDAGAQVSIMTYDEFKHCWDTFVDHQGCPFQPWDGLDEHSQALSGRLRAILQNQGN
# [10] = m6A at position 9, plate ELISA, avidity, stated only as subnanomolar
substance,measurement,setting,value
NNNNNNNNANNNNNNNN [m6A degenerate RNA (SEQ ID NO: 1)],Kd,[1]; [10],< 1 nM
same,Kd,[2]; [10],< 1 nM
same,Kd,"[3]; m6A at position 9, plate ELISA, immobilised RNA, avidity, stated only as subnanomolar, 22C",< 1 nM
same,binding signal (fold loss of KD vs unlabeled Ab05),[4],> 15
NNNNNNNNNNNNNNNN [unmodified degenerate reference RNA (SEQ ID NO: 5)],binding signal (fold weaker than cognate),[5]; unmodified control,> 100
same,binding signal (fold weaker than cognate),[6]; unmodified control,> 100
same,binding signal (fold weaker than cognate),[7],10
same,binding signal (fold weaker than cognate),[1]; unmodified control,> 100
same,binding signal (fold weaker than cognate),[2]; unmodified control,> 100
same,binding signal (fold weaker than cognate),[3]; unmodified control,> 100
same,binding signal (fold weaker than cognate),[8],10
FAM-DNA oligonucleotide with a single central C,activity (fold vs APOBEC1),[9],> 10
NNNNNNNNINNNNNNNN [inosine degenerate RNA (SEQ ID NO: 2 in Table 4)],Kd,"[5]; inosine at position 9, plate ELISA, avidity, stated only as subnanomolar",< 1 nM
NNNNNNNNCNNNNNNNN [m5C degenerate RNA (SEQ ID NO: 4)],Kd,"[6]; m5C at position 9, plate ELISA, avidity, stated only as subnanomolar",< 1 nM
